These results are taken from paper PMC11286949, “Structural basis of tRNA recognition by the widespread OB fold”.

Substitutions are numbered along the chain they refer to.

Common to all, as to assay: ITC; ITC (Arc1p): 25 mM Tris-HCl pH 7.4, 150 mM NaCl, 2 mM MgCl2, 25 °C. FP and competition FP: 25 mM Tris-HCl pH 7.5, 150 mM NaCl (Arc1p) or 50 mM NaCl (Trbp111), 2 mM MgCl2, room temperature
Conditions in all cases: protein: recombinant; tags: His-MBP removed; tRNA fold
(In general: Isothermal titration calorimetry measures the heat released or taken up as one component is titrated into another.)

In one data set the target is T1, Arc1p dNdM1 (Saccharomyces cerevisiae, UniProt P46672 166-376).
T1 sequence: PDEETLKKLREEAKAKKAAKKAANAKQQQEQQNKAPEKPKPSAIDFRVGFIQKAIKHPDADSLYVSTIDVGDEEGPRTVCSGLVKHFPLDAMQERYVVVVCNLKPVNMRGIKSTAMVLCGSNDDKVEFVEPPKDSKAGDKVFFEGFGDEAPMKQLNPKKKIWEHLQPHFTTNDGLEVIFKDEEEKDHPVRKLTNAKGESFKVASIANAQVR

The target in the next data set is T2, Arc1p dN K269A (Saccharomyces cerevisiae, UniProt P46672 132-376, K269A;del1-131).
T2 sequence: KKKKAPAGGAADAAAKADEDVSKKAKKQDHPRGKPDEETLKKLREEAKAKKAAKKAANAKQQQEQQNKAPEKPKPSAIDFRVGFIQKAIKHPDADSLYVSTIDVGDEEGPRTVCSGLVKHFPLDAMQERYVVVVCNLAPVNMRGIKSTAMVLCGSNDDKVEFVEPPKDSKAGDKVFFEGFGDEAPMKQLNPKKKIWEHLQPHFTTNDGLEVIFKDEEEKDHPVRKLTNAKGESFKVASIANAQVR

A further data set concerns the target T3, Arc1p dN (Saccharomyces cerevisiae, UniProt P46672 132-376, del1-131).
T3 sequence: T2 sequence with A138K

A further data set deals with T4, Arc1p dN S278A/M281A (Saccharomyces cerevisiae, UniProt P46672 132-376, S278A;M281A;del1-131).
T4 sequence: T2 sequence with A138K, S147A, M150A

For data set [1], the target named is T5, Arc1p dN V271A/M273A/M281A (Saccharomyces cerevisiae, UniProt P46672 132-376, V271A;M273A;M281A;del1-131).
T5 sequence: T2 sequence with A138K, V140A, M142A, M150A

The next data set has as its target T6, Arc1p (Saccharomyces cerevisiae, UniProt P46672 1-376).
T6 sequence: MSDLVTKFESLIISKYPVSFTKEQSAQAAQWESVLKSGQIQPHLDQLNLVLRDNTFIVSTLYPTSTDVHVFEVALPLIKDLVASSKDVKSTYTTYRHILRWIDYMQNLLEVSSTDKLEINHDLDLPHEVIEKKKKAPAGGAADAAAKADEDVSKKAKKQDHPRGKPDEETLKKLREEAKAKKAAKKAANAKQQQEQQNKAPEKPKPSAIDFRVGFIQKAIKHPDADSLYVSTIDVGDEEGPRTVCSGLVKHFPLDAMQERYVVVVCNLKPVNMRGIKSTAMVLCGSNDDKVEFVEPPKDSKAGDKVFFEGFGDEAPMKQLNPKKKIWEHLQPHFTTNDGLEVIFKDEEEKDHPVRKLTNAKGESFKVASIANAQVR

As usually defined, the Kd is a measure of binding affinity in units of concentration.

B1: tRNAIle WT (structured_RNA)
RNA: AGGCUUGUAGCUCAGGUGGUUAGAGCGCACCCCUGAUAAGGGUGAGGUCGGUGGUUCAAGUCCACUCAGGCCUACCA
Turning to B1, the Kd with Arc1p dNdM1 is 2550 ± 456 nM; with Arc1p dN K269A, 1500 ± 55 nM; with Arc1p dN, 321 ± 101 nM; in the data set with Arc1p dN S278A/M281A it was 1430 ± 379 nM; in data set [1], 544 ± 215 nM; with Arc1p, 1280 ± 130 nM.
